Patent publication US20120101255A1 (published 2012)

Tests used:
[1] = biological target: T1, Recombinant Cx43CT (carboxyl terminal domain of rat connexin43, residues 255-382, preceded by GPLG) (rat, UniProt P08050 255-382); test: SPR, Cx43CT immobilised, peptide 250 µM and higher
T1 construct: range 255-382; Made as a GST fusion in E. coli and cleaved from GST; 15N-labelled for NMR; also called recombinant CT; carboxyl terminal domain of Cx43
Experimental: II: Applications to Biological Systems,” Biochim. Biophys. Acta 1331(2):131-152 (1997), which is hereby incorporated by reference in its entirety). Specific peptides were presented and, when feasible, dissociation constants (KD) were calculated from the time course of binding and unbinding of the ligand, using a 1:1 (Langmuir) association and dissociation kinetic model (Biacore software package). In both phases (association and dissociation), the first 5-8 seconds of recording were not included in the fit, to avoid artifacts resulting from peptide distribution within the flow cells (Lang et al., “Surface Plasmon Resonance as a Method to Study the Kinetics and Amplitude of Protein-protein Binding,” in PRACTICAL METHODS IN CARDIOVASCULAR […] 936-947 (Stefan Dhein, Friedrich Wilhelm Mohr & Mario Delmar eds., 2005), which is hereby incorporated by reference in its entirety).
Phage display allows for the rapid screening of thousands of peptides, but the characteristics of binding cannot be properly defined. Furthermore, the peptides are part of a capsid protein, which may affect the ability of the peptide to properly interact with the target protein. […] Higher concentrations of the peptide were tested but an asymptotic maximum response could not be detected.

[2] = biological target: Cx43 expressed in N2a (neuroblastoma) cells; test: cell-based or functional assay

T1 sequence (P08050 other isoform, or with tags, fused parts or gaps limits assumed): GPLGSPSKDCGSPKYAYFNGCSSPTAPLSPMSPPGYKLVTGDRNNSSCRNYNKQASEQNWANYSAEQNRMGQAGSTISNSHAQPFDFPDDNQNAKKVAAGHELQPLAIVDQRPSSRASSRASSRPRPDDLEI

B1: RXP4 (peptide)
peptide: RRPPYRVPPKLF
notes: Synthetic 12-mer from the non-biased phage display screen
- binding result [1]: binds

B2: RXP-E (peptide)
peptide: SDDLRSPQLHNGGGSAVPFYSHSHMVRRKPRNPR
- junctional conductance (Gj) relative to control during octanol superfusion, RXP-E 0.1 mM in the pipette [2]: 57.6 % of control
- junctional conductance (Gj) relative to control with pipette solution at pH 6.2, RXP-E in the pipette [2]: 57 % of control
